Measured values reported in patent US20220281949A1.

Molecular target: DR1-restricted TCR HA1.7
Experiment: flow cytometry: HA1.7-transduced primary CD4+ T cells stained with PE wild-type DR1 dextramer and anti-CD4

## wild-type DR1 dextramer specific to Flu-HA306-318 (peptide-MHC)
  percent of cells in the dextramer+ CD4+ quadrant: 30.4%
